# Article PMC5643395
# What was measured:
# Assay in all cases: ensemble FRET (microplate), salt-induced disassembly
# Conditions in all cases: Reconstitution by dialysis from 2 M to 5 mM NaCl in 10 mM Tris-HCl, 0.1 mM EDTA; FRET over NaCl titration (FRET buffer and temperature not in the material) …
# [1] = tested on: histone octamer H2A R81E/R88E
# [2] = tested on: histone octamer H2A R81A/R88A
# histone octamer H2A R81A = tested on: histone octamer H2A R81A
# histone octamer H2A R81E = tested on: histone octamer H2A R81E
# histone octamer H2A R88E = tested on: histone octamer H2A R88E
# histone octamer H2A R88A = tested on: histone octamer H2A R88A
substance,measurement,setting,value
Widom 601 170 bp,K half,[1],452 mM NaCl
same,K half,[2],568 mM NaCl
same,K half,histone octamer H2A R81A,632 mM NaCl
same,K half,histone octamer H2A R81E,468 mM NaCl
same,K half,histone octamer H2A R88E,455 mM NaCl
same,K half,histone octamer H2A R88A,668 mM NaCl
